The values that follow are results of earlier work, collected in paper PMC3101942.

The data set concerns the target tissue factor (Homo sapiens) (UniProt P13726).
Sequence of UniProt P13726 (P13726 33-251): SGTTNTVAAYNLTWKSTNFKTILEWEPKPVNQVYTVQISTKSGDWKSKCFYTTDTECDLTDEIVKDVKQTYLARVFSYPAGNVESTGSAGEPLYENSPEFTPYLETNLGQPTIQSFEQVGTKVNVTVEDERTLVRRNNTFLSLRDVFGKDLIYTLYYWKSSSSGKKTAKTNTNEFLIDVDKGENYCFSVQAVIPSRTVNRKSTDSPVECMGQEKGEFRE

In the case of factor VII (from UniProt P08709), the Kd (in general, the concentration at which binding is half-saturated) is 1 pM.
